In the supplement of paper PMC10567573:
± gives the standard deviation.

Assay: protein stability index of a GFP-peptide fusion (GPS, HEK-293T) (PSI 1-6); higher = more stable
[1] = treatment: DMSO, c terminus: a fixed tail appended
[2] = treatment: MLN4924 1 uM, 8 h, c terminus: a fixed tail appended
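Further: 24-mer peptide tiles fused after GFP, lentivirally expressed, FACS-sorted into six equal bins by GFP/DsRed ratio, decoded by Illumina sequencing, PSI is the read-weighted mean bin number.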

Row | Sequence | protein stability index [1] | protein stability index [2] | protein stability index (treatment: DMSO, c terminus: native) | protein stability index (treatment: MLN4924 1 uM, 8 h, c terminus: native)
1 | INVPIRLECVKFASHCLMNHPDLA [PDS5B] | 2.28 ± 0.46 | 2.27 ± 0.17 | – | –
2 | KAVCGKCSSKRSSIPLMGFEFEVR [WDFY2] | 2.32 ± 0.12 | 2.71 ± 0.39 | – | –
3 | ASLKGYQWLKDKILSEEGRRQQAK [KCNAB2] | 3.69 ± 0.18 | 3.67 ± 0.21 | – | –
4 | HLYIYSIHSIPKGTEITIAFDFDY [KMT2E] | 3.39 ± 0.45 | 3.08 ± 0.33 | – | –
5 | LFSLMVVNRLTEELGCDEIIDRE [EID1] | – | – | 3 ± 1.1 | 2.37 ± 0.48
6 | IIKMATARQETKEMARKVIEHCSN [ZER1] | 2.94 ± 0.35 | 3.08 ± 0.13 | – | –
7 | YQRFRQKSKASFLLLASGLVITDF [PTGFR] | 2.65 ± 0.21 | 2.49 ± 0.7 | – | –
8 | GHKRKQPLPKRVAKVPRPPSTLLP [FOXJ1] | 4.02 ± 0.49 | 3.86 ± 0.041 | – | –
9 | ELRDISSMAMEYFDEKIVPILKRK [FBXO28] | 2.78 ± 0.36 | 3 ± 0.45 | – | –
10 | TEHMKTHTGLKPYECGVCAKKFMW [ZBTB22] | 2.65 ± 0.26 | 2.77 ± 0.34 | – | –
11 | RFGDRMFYKDWWNSTSYSNYYRTW [SOAT1] | 1.92 ± 0.23 | 2.04 ± 0.34 | – | –
12 | GIMCLKRLNYDRKELEKRREESQH [PPFIA4] | 3.69 ± 0.31 | 3.62 ± 0.4 | – | –
13 | FHKDCASRVNNASYCPHCGEESSK [EHMT1] | 3.45 ± 0.15 | 4.05 ± 0.47 | – | –
14 | DLAWMITFYVRFFLTYVPLLGLKA [FADS1] | 3.03 ± 0.11 | 3.62 ± 0.23 | – | –
15 | LRHSNPRADPLVCATGLLGSAPFL [SPNS1] | 2.28 ± 0.31 | 2.75 ± 0.39 | – | –
16 | NPFQDPAVIQHRPSRQYATLDVYN [SCAMP3] | 3.6 ± 0.28 | 3.62 ± 0.19 | – | –
17 | LLSDVRFVLGKGRGAAAAGGPQRI [BTBD1] | 2.85 ± 0.63 | 3.04 ± 0.27 | – | –
18 | KLGWGHFSTVWLCWDMQGKRFVAM [SRPK2] | 2.9 ± 0.87 | 2.64 ± 1.2 | – | –
19 | REQSRLTSCLKKREEMKLKECVSI [TNFSF13B] | 3.62 ± 0.11 | 3.81 ± 0.24 | – | –
20 | YVEIRTFEPRLLVQSIELQRPRFI [VPS39] | 2.33 ± 0.76 | 2.65 ± 0.7 | – | –
21 | PAFTVWCGSFQVTTGLQVPSAVRC [FSD1] | 2.63 ± 0.6 | 2.56 ± 0.54 | – | –
22 | LVSDDPRCRLSLDDRVLSSLVRDT [POP5] | 3.44 ± 0.24 | 3.68 ± 0.12 | – | –
23 | KHTVKEHECKLTQEILELIDREVD [IQUB] | 4.06 ± 0.23 | 4.24 ± 0.22 | – | –

Row | Sequence | protein stability index [1] | protein stability index [2] | protein stability index (treatment: DMSO, c terminus: native) | protein stability index (treatment: MLN4924 1 uM, 8 h, c terminus: native)
24 | RFLRMLLRLADEFGVAVVITNQVV [RAD51] | 2.46 ± 0.45 | 2.45 ± 0.84 | – | –
25 | PGAEEAQDPEGKGEQEHSQQKEEE [CHGA] | 5.65 ± 0.15 | 5.58 ± 0.43 | – | –
26 | DLPINVFKLLAGRWPFDHNDFGVF [EDNRA] | 2.19 ± 0.7 | 2.19 ± 0.45 | – | –
27 | ALGPLRTPAPPLWIGLFLVATGSQ | 2.64 ± 0.57 | 2.27 ± 0.14 | – | –
28 | KDHECSECGKTFIYNSHLVVHQRV [ZNF232] | 2.56 ± 0.32 | 2.88 ± 0.41 | – | –
29 | LYAVGGHDGSSYLNSVERYDPKTN [KLHL20] | 3.72 ± 0.22 | 3.79 ± 0.23 | – | –
30 | DNAPVFTLPEYRVSVPENLPVGTQ [PCDHGA10] | 4.54 ± 0.17 | 4.45 ± 0.26 | – | –
31 | SLNPDGYEKAYEGGSELGGWSLGR [CPXM2] | – | 4.29 ± 0.39 | – | –
32 | QYLRLPDAPEQRLRVMTTNIRSAR [ELOA2] | 3.58 ± 0.31 | 3.9 ± 0.16 | – | –
33 | RHMEAVKAQLLEQAQGQLRELLDR [SOAT2] | 3.07 ± 0.37 | 3.08 ± 0.086 | – | –
34 | RNYLNYGEEGAPGKWQQQGDLQDT [CHGB] | 4.86 ± 0.14 | 4.94 ± 0.39 | – | –
35 | SLSDLEIQASAGVISKKAKVKVPQ [ZNF75A] | 4.44 ± 0.21 | 4.55 ± 0.14 | – | –
36 | PGAPPGRDLASVPPELTASRQSFR [DVL3] | 4.7 ± 0.23 | 4.84 ± 0.12 | – | –
37 | DLRADDLPGPAFESYESMELACPA [KLHDC2] | 4.84 ± 0.11 | 4.72 ± 0.34 | – | –
38 | IVGNQVQGAPASSFVYVNPEDGRI [PCDHGC5] | 3.46 ± 0.073 | 3.48 ± 0.21 | – | –
39 | VNRTTRTNSTPLRAACFDGHLEVV [FEM1A] | 2.9 ± 0.35 | 2.74 ± 0.34 | – | –
40 | QYTVPGTEGVTQLKLTVVEDVTVG [ZFYVE21] | 3.86 ± 0.19 | 3.98 ± 0.41 | – | –
41 | CLGALCENTCLLRGFSGGILAFLV [TSPAN10] | 2.34 ± 0.57 | 2.55 ± 0.33 | – | –
42 | LFPNAKKEHVPTWLQNTHVYSWPK [TRAF3IP2] | 2.8 ± 0.33 | 2.81 ± 0.19 | – | –
43 | QPRKGGADWLGLKDEDLDLFPASP [FBF1] | 4.71 ± 0.1 | 4.79 ± 0.17 | – | –
44 | AQVPDTRWSRVGGQRFYSRVLSPL | 2.41 ± 0.69 | 2.75 ± 0.43 | – | –
45 | PLVLSYIDLSAWCYYCQAYVHHQA [HDAC6] | 2.97 ± 0.81 | 3.27 ± 0.49 | – | –
46 | SAAGPPLSEDDKLQGAASHVPEGF [EHMT1] | 5.31 ± 0.3 | 5.21 ± 0.11 | – | –

Row | Sequence | protein stability index [1] | protein stability index [2] | protein stability index (treatment: DMSO, c terminus: native) | protein stability index (treatment: MLN4924 1 uM, 8 h, c terminus: native)
47 | TMIRKLEGHHHDVVACDFSPDGAL [WSB1] | 3.25 ± 0.28 | 3.48 ± 0.37 | – | –
48 | LRPAKRELRGAEPGRPARLDQLLD [SPSB4] | 4.12 ± 0.2 | 4.03 ± 0.22 | – | –
49 | NSDQTTCRIQDLCAMEDHNCEQLC [MATN2] | 4.04 ± 0.29 | 4.05 ± 0.23 | – | –
50 | SDLFDLMGSSQATMTSSQSMNFSM [CLINT1] | 2.42 ± 0.22 | 2.66 ± 0.24 | – | –
51 | EVLREQAGGDATENFEDVGHSTDA [CYB5A] | 5.57 ± 0.43 | 5.67 ± 0.19 | – | –
52 | AEEHREKLLKQMRILWKKIQENQR [TRIM43] | 2.46 ± 0.24 | 2.21 ± 0.18 | – | –
53 | GQTSGAREPPQAVSIKEAAGSSNL [VENTX] | 5.26 ± 0.26 | 5.15 ± 0.25 | – | –
54 | EELQNKILTATVDNANILLQIDNA [KRT17] | 4.03 ± 0.095 | 4.3 ± 0.053 | – | –
55 | RALHWAAYMGHLDVVALLINHGAE [ANKRD44] | 2.56 ± 0.43 | 3.12 ± 0.66 | – | –
56 | KSEEGHPFKAYLDVDITLSSEAFH [RTN3] | 2.87 ± 0.45 | 2.67 ± 0.41 | – | –
57 | FRVGKKIGCGNFGELRLGKNLYTN [CSNK1G3] | 2.06 ± 0.19 | 2.28 ± 0.087 | – | –
58 | NHANGLTLVSRAHQLVMEGYNWCH [PPP2CA] | 2.6 ± 0.16 | 2.49 ± 0.29 | – | –
59 | KATMQNLNDRLASYLDKVRALEEA [KRT17] | 3.14 ± 0.19 | 3.43 ± 0.3 | – | –
60 | QLEVTCTPYLKETLNSIWNVEDHI [POMT2] | 2.51 ± 0.32 | 2.44 ± 0.34 | – | –
61 | SYHDGYGEALGRDHSEHLSGSSYR [RBMY1A1] | 4 ± 0.19 | 4.12 ± 0.35 | – | –
62 | PPPHLLPEKHQVPEKLIWGDQDPL [WDR88] | 4.53 ± 0.23 | 4.44 ± 0.15 | – | –
63 | ALQEKLWNVAAPLYLKQSDLASAA [INTS4] | 2.31 ± 0.17 | 2.27 ± 0.3 | – | –
64 | VHSDLSSIVILDNSPGAYRSHPDN [CTDNEP1] | 3.6 ± 0.15 | 3.72 ± 0.27 | – | –
65 | MVEDDSRKEMTAACTPRRRIINLT [MLH1] | 3.95 ± 0.059 | 3.93 ± 0.29 | – | –
66 | CRPLLPSCTTRLCQEEQLRSHENK [PSD2] | 4 ± 0.13 | 3.88 ± 0.34 | – | –
67 | LASGPGKYMPHLCQDSSGEVSCQC | 3.99 ± 0.12 | 4.1 ± 0.27 | – | –
68 | LPFRDASFGNCTYNLTILDCLQGI [CDC14A] | 2.44 ± 0.59 | 2.71 ± 0.49 | – | –
69 | RTTPSRREITGVQAQPGEATSGPP [PALM] | 5.25 ± 0.35 | 5.2 ± 0.093 | – | –

Row | Sequence | protein stability index [1] | protein stability index [2] | protein stability index (treatment: DMSO, c terminus: native) | protein stability index (treatment: MLN4924 1 uM, 8 h, c terminus: native)
70 | PDPDAWLRALGELLRRDLGVGTSM [FANCE] | 1.86 ± 0.28 | 1.9 ± 0.2 | – | –
71 | RPNRQLGSMVEIAKQLQAVKRKIR [TRIM39] | 2.85 ± 0.43 | 3.03 ± 0.27 | – | –
72 | RFCLVPSMEGVRWAFSCGTWLPSR [AASDHPPT] | 2.48 ± 0.79 | 2.32 ± 0.056 | – | –
73 | EFDDGSGSVLRIQPLRTPRDEAIY [PTPRD] | 3.47 ± 0.11 | 3.88 ± 0.54 | – | –
74 | TSSLRLNWEAPPGAFDSFLLRFGV [TNXB] | 2.06 ± 0.27 | 2.21 ± 0.56 | – | –
75 | PDEMRMQALLIRERILGPSHPDTS [FEM1A] | 3.29 ± 0.26 | 3.56 ± 0.19 | – | –
76 | IENIQRVAAGVLCELAQDKEAAEA [CTNNB1] | 5.08 ± 0.11 | 5.1 ± 0.48 | – | –
77 | RSLENYHFVDEHGKDQGINIRQKV [CLINT1] | 3.77 ± 0.23 | 3.75 ± 0.4 | – | –
78 | FPHSGKDCLLCFPETLPESSLFSV [C8orf76] | 2.21 ± 0.52 | 2.36 ± 0.32 | – | –
79 | LREKLRLREAEIARIRDEEAQRAS [LRRC45] | 4.17 ± 0.56 | 4.65 ± 0.18 | – | –
80 | RRGRHEQSPTSRPRKVSSLPPRSC [C22orf15] | 4.35 ± 0.066 | 4.61 ± 0.22 | – | –
81 | DSASLPRKPSVPWQRQMDQPQDRN [RASAL3] | 4.65 ± 0.22 | 4.78 ± 0.23 | – | –
82 | EFVNGWYILLVTSDVLTISGTIMK [MCOLN1] | 3.06 ± 0.26 | 3.08 ± 0.33 | – | –
83 | WYLKEEDHYQRVKREREKEDIALN [RHOBTB1] | 3.94 ± 0.18 | 3.955 ± 0.027 | – | –
84 | NSSVWNSHLQTNYSKTFQRSNVDF [NECAB1] | 2.65 ± 0.18 | 2.77 ± 0.32 | – | –
85 | PSVYHAMPSPCSCMSFNPETRRLS [WDFY2] | 2.57 ± 0.36 | 2.88 ± 0.41 | – | –
86 | HLRTHTGERPYKCSECGESFSRSS [ZNF263] | 3.16 ± 0.19 | 3.38 ± 0.55 | – | –
87 | MEKMLAGCFLLILGQIVLLPAEAR [MATN2] | 3.46 ± 0.56 | 3.01 ± 0.3 | – | –
88 | TIKSHLKSFSMANGMNAVMMHGRS [RAB40C] | 2.54 ± 0.14 | 2.6 ± 0.23 | – | –
89 | APQGGMAALNMSLGMVTPVNDLRG [ADD1] | 3.83 ± 0.23 | 3.77 ± 0.097 | – | –
